The results in this text go back to patent US20040077046.

The test system of the data set is 3H-acetylated histone H4 peptide ([3H]-Ac(H41-24)).

Turning to “flag epitope-tagged HDAC9 (HDAC9v1 with C-terminal flag tag)”, the “in vitro histone deacetylase assay (release of 3H-acetate from the peptide by immunoprecipitated enzyme)” value was “HDAC9 could deacetylate the histone peptide substrate at a level that was equivalent to UDAC3 and HDAC4”.
